One may read the IC50 as the point on the concentration scale where inhibition reaches its midpoint. As usually defined, the EC50 is the concentration needed to bring the measured effect to its halfway point. The Kd is the equilibrium constant for the complex coming apart. A high value points to weaker binding. For orientation: koff means a measure of how fast the partners let go of each other. As usually defined, the kon is the second-order rate constant of association. Lower therefore signals slow association.

The text below walks through data of patent US20210040232A1 (Regeneron, published 2021).

In test [1] the target is T1, recombinant hCTLA-4-mFc (human CTLA-4 extracellular domain with a C-terminal Fc portion of mouse IgG2a) (human).
T1 construct: also called dimeric CTLA-4 protein
T1 sequence (chain, as listed by the source limits assumed): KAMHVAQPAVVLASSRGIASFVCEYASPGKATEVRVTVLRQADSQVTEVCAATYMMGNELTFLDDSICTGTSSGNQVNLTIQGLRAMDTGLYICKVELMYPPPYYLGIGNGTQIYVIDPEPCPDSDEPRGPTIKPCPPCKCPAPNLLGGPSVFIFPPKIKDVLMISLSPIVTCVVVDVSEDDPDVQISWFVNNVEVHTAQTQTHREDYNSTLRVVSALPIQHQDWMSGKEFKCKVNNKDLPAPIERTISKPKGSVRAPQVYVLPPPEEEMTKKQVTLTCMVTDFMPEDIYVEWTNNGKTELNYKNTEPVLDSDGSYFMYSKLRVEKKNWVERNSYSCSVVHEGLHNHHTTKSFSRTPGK
In words: competition ELISA, 200 pM hCTLA-4-mFc on plate-coated hB7-1-hIgG1-6His.

Test [2] concerns the target T2, human CTLA-4 (amino acids M1-N223) on stably transfected VI-fibroblast cells (human, UniProt P16410 36-223).
T2 construct: also called VI-fibroblast/hCTLA-4
In words: ECL cell binding, VI-fibroblast/hCTLA-4 cells.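 Also: antibodies bound to the cells on carbon electrode plates, detected via SULFO-TAG anti-IgG secondary (1 h, RT), electrochemiluminescence read as RLU over a concentration range.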

The target in test [3] is T3, soluble human CTLA-4 expressed with a C-terminal myc-myc-polyhistidine tag (human).
T3 construct: soluble protein; also called hCTLA-4.mmh; hCTLA4.mmh
Kind of test: SPR, mAb capture, 25 C. (SPR reads the build-up and loss of mass on a sensor chip optically.)

Test [4] concerns the target T4, soluble Macaca fascicularis CTLA-4 expressed with a C-terminal myc-myc-polyhistidine tag (Macaca fascicularis).
T4 construct: soluble protein; also called mf CTLA-4.mmh; mfCTLA4.mmh
T4 chain: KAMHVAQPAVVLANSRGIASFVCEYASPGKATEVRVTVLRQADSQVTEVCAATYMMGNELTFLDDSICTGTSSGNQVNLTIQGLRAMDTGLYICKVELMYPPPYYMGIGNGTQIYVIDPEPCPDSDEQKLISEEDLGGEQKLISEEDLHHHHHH
In words: SPR, mAb capture, 25 C.

The target in test [5] is T1, recombinant hCTLA-4-mFc (human CTLA-4 …). Kind of test: competition ELISA, 400 pM hCTLA-4-mFc on plate-coated hB7-2-hIgG1-6His.

T2 sequence (P16410 36-223 limits assumed): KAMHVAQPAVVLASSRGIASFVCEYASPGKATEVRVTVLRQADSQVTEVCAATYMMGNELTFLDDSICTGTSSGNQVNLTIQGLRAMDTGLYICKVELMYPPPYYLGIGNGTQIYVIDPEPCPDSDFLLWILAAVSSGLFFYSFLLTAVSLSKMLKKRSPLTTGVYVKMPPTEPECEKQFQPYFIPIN

B1: H1H19283P (antibody, human IgG1, V domains shown)
VH: QVQLVESGGGLVKPGGSLRLSCAASGFTFSDYYMTWIRQAPGKGLEWVSYISSSGGNIFYADSVKGRFTISRDNAKNSLYLQMNSLRGEDTAVYYCARGLEPYHYYYGMDVWGQGTTVTVSS
VL: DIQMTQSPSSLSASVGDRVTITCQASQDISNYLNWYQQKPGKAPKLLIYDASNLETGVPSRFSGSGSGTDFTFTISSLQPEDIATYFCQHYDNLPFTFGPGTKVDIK
Take B1: in test [1], the “% Blockade” value amounted to 96% and the IC50 was determined as 9.7 nM. Also, in test [2], the EC50 turned out to be 0.79 nM and the “ratio of RLU signal to parental VI-fibroblast at 0.4 nM Ab” value (shortened to “ratio of RLU signal”) came out at 7 ratio. In test [3], this molecule registered a Kd of 3.75 nM, a koff of 0.000828 s⁻¹, a kon of 221000 M⁻¹ s⁻¹ and a t1/2 of 14 min. In test [4], this molecule returned a Kd of 3.11 nM, a koff of 0.000683 s⁻¹, a kon of 220000 M⁻¹ s⁻¹ and a t1/2 of 16.9 min. Besides, in test [5], the “% Blockade” value was found to be 99% and the IC50 came out at 1.2 nM.

B2: H1H19279P (antibody, human IgG1, V domains shown)
VH: QVQLVQSGAEVKKPGASVKVSCKASGYTFTDYYIHWVRQAPGQGLEWMGWINPNNGVSNYAQKFQGRVTMTRDTSISTAYMDLIRLRSDDTAVYYCARERASWDYNGVDVWGQGTTVTVSS
VL: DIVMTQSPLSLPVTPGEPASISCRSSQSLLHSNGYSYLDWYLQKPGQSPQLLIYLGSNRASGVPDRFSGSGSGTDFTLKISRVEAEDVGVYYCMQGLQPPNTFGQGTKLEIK
For the molecule B2, in test [1], the “% Blockade” value was determined as 97% and the IC50 turned out to be 0.21 nM. In addition, in test [2], the EC50 stood at 0.24 nM and the “ratio of RLU signal” value came to 18 ratio. In test [3], this molecule showed a Kd of 0.752 nM, a koff of 0.000261 s⁻¹, a kon of 346000 M⁻¹ s⁻¹ and a t1/2 of 44.3 min. In test [4], this molecule came in with a Kd of 0.763 nM, a koff of 0.000259 s⁻¹, a kon of 340000 M⁻¹ s⁻¹ and a t1/2 of 44.6 min. Moreover, in test [5], the “% Blockade” value came to 100% and the IC50 was found to be 0.22 nM.

B3: H1H19274P (antibody, human IgG1, V domains shown)
VH: QVQLQESGPGLVKPSETLSLTCTVSGGSINSYYWTWIRQPPGKGLEWIGYVYYSGSTTYNPSLKSRVTISVDTSKNQFFLNLNSVTAAETAVYYCARGTLGYYGMDVWGQGTTVTVSS
VL: EIVLTQSPGTLSLSPGERATLSCRASQSFSNNYLAWYQQKPGQAPRLLIYGTSIRATGIPDRFSGSGSGTDFTLAISRLEPEDFAVYYCQQYGRSPLTFGGGTKVEIK
Take B3: in test [1], the “% Blockade” value was found to be 99% and the IC50 is 0.13 nM. In test [2], the concentration giving a half-maximal response (EC50) was determined as 0.39 nM and the “ratio of RLU signal” value was determined as 18 ratio. In test [3], the Kd turned out to be 1.43 nM, the koff was 0.00076 s⁻¹, the kon came to 530000 M⁻¹ s⁻¹ and the t1/2 came out at 15.2 min. Also, in test [4], the Kd came out at 0.887 nM, the koff was 0.000463 s⁻¹, the kon was 522000 M⁻¹ s⁻¹ and the t1/2 is 25 min. Besides, in test [5], the “% Blockade” value worked out at 100% and the IC50 came out at 0.25 nM.

B4: H1H19314P2 (antibody, human IgG1, V domains shown)
VH: QVQLVQSGAEVKKPGASVKVSCKASGYTLSSYGISWVRQAPGQGLEWMGWISAYNGNTNYAQKLQGRLTMTTDTSTSTAYMELRSLRSDDTAVYYCSRDGPFKISFFGMDVWGQGTTVTVSS
VL: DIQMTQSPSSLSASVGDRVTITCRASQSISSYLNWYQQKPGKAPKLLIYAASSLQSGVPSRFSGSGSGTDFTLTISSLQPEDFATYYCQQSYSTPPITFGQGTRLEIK
As for B4, the “% Blockade” value in test [1] worked out at 0%. In addition, in test [2], a half-maximal response (EC50) required 3.4 nM and the “ratio of RLU signal” value was 8 ratio. Moreover, in test [3], the affinity, expressed as Kd, was 9.87 nM; the koff worked out at 0.00113 s⁻¹; the kon was 115000 M⁻¹ s⁻¹; the t1/2 came out at 10.2 min. Moreover, in test [4], the dissociation constant (Kd) worked out at 8.57 nM, the koff amounted to 0.000913 s⁻¹, the kon amounted to 107000 M⁻¹ s⁻¹ and the t1/2 was determined as 12.6 min. Also, the “% Blockade” value in test [5] was determined as 7%.

B5: H1H19280P (antibody, human IgG1, V domains shown)
VH: QLQLQESGPGLVKPSETLSLTCIVSGGSTSSNTYYWGWIRQPPGKGLEWIGTIHYSGNPYYDPSLKSRVTISVDTSKNHFSLKLNSVTAADTAVYYCTRQYINFFDFWGQGTLVTVSS
VL: EIVLTQSPATLSLSPGERVTLSCRASQSISRYLAWYQQKPGQAPRVLIYDASNRATDIPARFSGSGSGTDFTLTISSLEPEDFAVYYCQQRSNWPITFGQGTRLEIK
As for B5, in test [1], the “% Blockade” value is 99% and the concentration for half-maximal inhibition (IC50) was found to be 0.11 nM. In test [2], the EC50 stood at 1.3 nM and the “ratio of RLU signal” value turned out to be 15 ratio. In addition, in test [3], binding was characterised by a dissociation constant (Kd) of 1.03 nM, the dissociation rate constant (koff) amounted to 0.000346 s⁻¹, the kon was determined as 337000 M⁻¹ s⁻¹ and the t1/2 was 33.4 min. In test [4], this molecule registered a Kd of 0.964 nM, a koff of 0.000309 s⁻¹, a kon of 320000 M⁻¹ s⁻¹ and a t1/2 of 37.4 min. Further, in test [5], the “% Blockade” value is 100% and the IC50 was determined as 0.2 nM.

B6: H1H19278P (antibody, human IgG1, V domains shown)
VH: QVQLVESGGGVVQPGRSLRLSCAASGFTFSSYGMNWVRQAPGKGLEWVAVTWYDGSNKHYADSVKGRFTISRDNSKNTLYLQMYSLRAEDTAMYYCVRGGHLGAFDIWGQGTMVTVSS
VL: EIVLTQSPGTLSLSPGERATLSCRASQSVSSYLAWYQQKPGQAPRLLIYGASSRATGIPDRFSGGGSGTDFTLTISRLEPEDFAVYYCQQYGSSPFTFGPGTKVDIK
Consider B6, for which, in test [1], the “% Blockade” value is 99% and the IC50 was determined as 0.32 nM. Besides, in test [2], the EC50 turned out to be 0.22 nM and the “ratio of RLU signal” value is 19 ratio. In test [3], this molecule came in with a Kd of 2.25 nM, a koff of 0.000402 s⁻¹, a kon of 179000 M⁻¹ s⁻¹ and a t1/2 of 28.8 min. In test [4], this molecule displayed a Kd of 6.11 nM, an off-rate (koff) of 0.00101 s⁻¹, a kon of 166000 M⁻¹ s⁻¹ and a t1/2 of 11.4 min. Further, in test [5], the “% Blockade” value amounted to 100% and the 50% inhibitory concentration (IC50) is 0.54 nM.

B7: H1H19294P (antibody, human IgG1, V domains shown)
VH: QVQLVQSGAEVKMSGASVRVSCKASGYTFTSYGISWMRQAPGQGLEWMGWITAYNGNSNYAQKLQGRVTMTTDTSTGTAYMELRSLTSDDTAVYYCARRGDYLGVFPYWGQGTLVTVSS
VL: DIQMTQSPSSLSASVGDRVTITCRASQSISSYLNWYQQKPGKAPNLLIYTASSLQSGVPSRFSGSGSGTDFTLTISSLQPEDFATYYCQQSYSSPLTFGGGTKVEIK
Take B7: in test [1], the “% Blockade” value was 99% and the IC50 worked out at 0.15 nM. Also, in test [2], the EC50 is 0.68 nM and the “ratio of RLU signal” value was 10 ratio. Besides, in test [3], the Kd came out at 1.13 nM, the koff was 0.000323 s⁻¹, the on-rate constant (kon) is 285000 M⁻¹ s⁻¹ and the t1/2 was determined as 35.7 min. Besides, in test [4], the Kd came to 1.02 nM, the koff came to 0.000269 s⁻¹, the kon turned out to be 263000 M⁻¹ s⁻¹ and the t1/2 was 43 min. Moreover, in test [5], the “% Blockade” value was found to be 99% and the concentration for half-maximal inhibition (IC50) came out at 0.25 nM.

B8: H1H19284P (antibody, human IgG1, V domains shown)
VH: EVQLVESGGGLVQPGGSLRLSCAASGFTLSNYVMTWVRQAPGKGLEWVSAISGRGGNSYYADSVKGRFSISRDHSKNTLYLQVNSLRAEDTAVYYCAKAERGYSYGFNWFDPWGQGTLVTVSS
VL: DIQMTQSPSSVSASAGDRVTITCRASQGISSWLAWYQQKPGKAPKLLIYAASSLQSGVPSRFSGSGSGTDFTLTISSLQPEDFASYYCQQGNNFPLTFGGGTKVEIK
Take B8: in test [1], the “% Blockade” value stood at 98% and the IC50 was found to be 0.17 nM. Further, in test [2], the “ratio of RLU signal” value came out at 7 ratio. In test [3], this molecule had a Kd of 2.49 nM, an off-rate (koff) of 0.000369 s⁻¹, a kon of 148000 M⁻¹ s⁻¹ and a t1/2 of 31.3 min. In addition, in test [4], the dissociation constant Kd amounted to 1.57 nM, the koff worked out at 0.000305 s⁻¹, the kon is 194000 M⁻¹ s⁻¹ and the t1/2 came out at 37.9 min. Further, in test [5], the “% Blockade” value is 99% and the half-maximal inhibitory concentration (IC50) came to 0.31 nM.

B9: H1H19312P (antibody, human IgG1, V domains shown)
VH: QVQLQESGPGLVKPSETLSLTCTVSGGSISSYHWSWIRQPLGKGLEWIGYIYYSGSTNYNPSLKSRVTISVDTSKNQFSLKLSSVTAADTAVYYCARGGSSIWPFDYWGQGTLVTVSS
VL: DIQMTQSPSTLSASVGDRVTITCRASQSISSWLAWYQQKSGKAPKLLISKASTLESGVPSRFSGSGSGTEFTLTISSLQPDDFATYYCQQYNIYSWTFGQGTKVEIK
Turning to B9, in test [1], the “% Blockade” value came to 97% and the IC50 is 0.2 nM. In addition, in test [2], the EC50 came out at 0.7 nM and the “ratio of RLU signal” value worked out at 14 ratio. In addition, in test [3], the Kd was 3.29 nM, the koff was 0.00105 s⁻¹, the kon was found to be 320000 M⁻¹ s⁻¹ and the t1/2 came out at 11 min. In test [4], this molecule had a dissociation constant Kd of 2.28 nM, a koff of 0.00076 s⁻¹, a kon of 333000 M⁻¹ s⁻¹ and a t1/2 of 15.2 min. In addition, in test [5], the “% Blockade” value was 99% and the IC50 worked out at 0.51 nM.
